Experimental data published in patent publication US20110144317A1, “MUTANTS OF GLYCOSIDE HYDROLASES AND USES THEREOF FOR SYNTHESIZING COMPLEX OLIGOSACCHARIDES AND DISACCHARIDE INTERMEDIATES” (priority 2008, published 2011).

Legend:
Type in all cases: biochemical
[1] = Enzymatic glucosylation of α-L-Rhap-OAll by 1G5A mutants; settings: sucrose donor and α-L-Rhap-OAll acceptor 1:1, 50 mM
Method: (§1) The enzymatic reaction was carried out using sucrose as donor and rhamnose derivative as acceptor in a 1:1 ratio (146 mM for L-Rhap, 50 mM for α-L-Rhap-OAll).
(§2) Efficiency of the glucosylation reaction was evaluated by HPLC analysis of the acceptor reaction product synthesized using a reversed phase analytical column (Synergi C18RPFusion, 4 μm, 30×4.6 mm) (when testing L-Rhap) and a Biorad HPLC Carbohydrate Analysis column (HPX-87K column (300×7.8 mm)) when testing α-L-Rhap-OAll. (cf. Example 1/Materials and Methods/Screening of mutant library)

[2] = Comparison of products synthesized by wild type and AS variant I228Y (HPAEC/HPLC); settings: for recognition of α-L-RhapO-Me as an acceptor: purified enzyme, HPLC, FIG. 7A
Method: All assays were performed at 30° C. in 50 mM Tris buffer, pH=7.0.
Comparison of products synthesized by wild type and AS variant. Reactions were performed in the presence of 146 mM sucrose alone or supplemented with 146 mM acceptor. The purified wild-type or mutated GST/AS were employed at 0.5 U/mL. The reactions were stopped by heating at 95° C. for […]. The final mixture was centrifuged at 18 000 g for 5 min.
Soluble and insoluble oligosaccharides produced during the reaction were identified by HPAEC using a Dionex Carbo-Pack PA100 column at 30° C. Before analysis, the insoluble fraction was solubilised in KOH at a final total sugar concentration of 10 g/kg. Mobile phase (150 mM NaOH) was set at 1 mL/min flow rate with a sodium acetate gradient (going from 6 to 500 mM within 120 min). Detection was performed using a Dionex ED40 module with a gold working electrode and an Ag/AgCl pH reference. Note that α-L-Rhap-OMe (acceptor) and its derivatives are not oxidable products and thus are not detectable by HPAEC. Sucrose, glucose, fructose, α-L-Rhap-OMe (acceptor) and its derivatives (glucosylation products) were quantified by HPLC, as previously described.

[3] = Determination of kinetic parameters (catalytic efficiency) of ASNPwt and I228Y; settings: for activation in the presence of α-L-RhapO-Me: increasing concentration of acceptor, FIG. 7D(b), 7E
Method: Catalytic efficiency (Eff=kcat/KM) of ASNPwt and I228Y variant were determined with both sucrose (D=Donor) and methyl α-L-rhamnopyranoside (A=Acceptor) as variable substrates. For the determination of the catalytic efficiency for D, A was held constant at 250 mM and D was varied between 0 and 600 mM. For the determination of the catalytic efficiency for A, D was held constant at 250 mM and A was varied between 0 and 500 mM. Experiments were performed until A and D solubility limits were reached. For each experiment, two distinct reaction velocities were determined: (1) the donor consumption determined by the release of fructose (called Vi (F)), corresponding to the overall kinetics of the different reactions described in FIG. 3 and (2) the acceptor glucosylation determined by the formation of α-D-Glcp-(1→3)-α-L-RhapOMe (called Vi(Dp2)), corresponding to the kinetics of the reaction of interest.
Initial velocities were fitted to the Michaelis-Menten equation using Sigma-Plot. As saturation was not achieved with the mutant, efficiency was calculated by linear regression analysis of the velocity versus substrate concentration plot. Aliquots (200 μL) were removed between 0 and 60 min (at which time product formation was still linear with respect to time), heated at 95° C. for 5 min and centrifuged at 18 000 g for 5 min. The final mixtures were filtered on a 0.22 μm membrane and analyzed using HPLC material previously described. HPLC analyses were performed using two columns: 1) a Biorad HPLC Carbohydrate Analysis column (HPX-87H column (300×7.8 mm)) maintained at 30° C., using ultra-pure water as eluent with a flow rate of 0.6 mL/min; 2) a reversed phase analytical column (Synergi C18RPFusion, 4 μm, 30×4.6 mm) kept at room temperature, with 1 ml/min of ultra-pure water as eluent. HPX-87H column was used to determine the released fructose by RI detection. C18RPfusion column was used to detect the formation of α-D-Glcp-(1→3)-α-L-RhapOMe.

[4] = Enzymatic glucosylation of L-Rhap by 1G5A mutants; settings: sucrose donor and L-Rhap acceptor 1:1, 146 mM
Method: as §1, §2

[5] = Screening of AS single mutant library for glucosylation of α-L-Rhap-OMe (HPLC); settings: FIG. 6
Method: The protocol was established to enable the rapid identification of clones able to glucosylate α-L-Rhap-OMe (formula II). To obtain higher amounts of enzymes and facilitate detection of glucosylated compounds upon HPLC screening, mutants were produced in 96-DeepWell Format plates. Storage microplates containing monomutants were thawed and replicated to inoculate a starter culture in 96-well microplates containing, in each well, 150 μL LB medium supplemented with ampicillin (100 μg/mL). After growth for 24 h at 30° C. under agitation (200 rpm), plates were duplicated into 96-Deep Well plates containing, in each well, 1.1 mL LB medium supplemented with ampicillin (100 μg/mL) and IPTG (1 mM) to induce GST-AS expression. Cultures were then grown for 24 h at 30° C. under agitation (200 rpm). […]
Efficiency of the glucosylation reaction was evaluated by HPLC analysis of the acceptor reaction product synthesized when using α-L-Rhap-OMe as acceptor using a Dionex P 680 series pump, a Shodex RI 101 series refractometer, a Dionex UVD 340 UV/Vis detector and an autosampler HTC PAL. […]
For each of the 7 selected positions, 19 single mutants were generated (corresponding to each possible amino acid change). […] Both sucrose consumption and disaccharide formation were determined in order to calculate the glucosylation rate defined as the molar ratio of monoglucosylated acceptor versus/sucrose consumed.

[6] = 146 mM sucrose supplemented with 146 mM acceptor

Row | Molecule | ability to glucosylate α-L-Rhap-OAll [1] | effect of the presence of α-L-RhapO-Me in the reaction medium on the product profile [2, 6] | recognition of α-L-RhapO-Me as an acceptor [2, 6] | activation in the presence of α-L-RhapO-Me [3] | catalytic efficiency ([3]; sucrose constant 250 mM, varied acceptor concentration) | Vi(Dp2) (acceptor glucosylation velocity) ([3]; sucrose constant 250 mM, varied acceptor concentration, FIG. 7E) | glucosylation of L-rhamnose with α-(1→3) linkage [4] | recognition of α-L-Rhap-OMe as acceptor / ability to form the desired disaccharide [5] | major reaction occurring ([2]; sole presence of sucrose) | highest Dp observed (maltooligosaccharide chains) ([2]; sole presence of sucrose, 146 mM, FIG. 7B)
1 | wild type AS: Wild type glycoside hydrolase: amylosucrase (ASNPwt) 1G5A of sequence SEQ ID NO: 13, from Neisseria polysaccharea (protein, listed as Neisseria polysaccharea) SPNSQYLKTRILDIYTPEQRAGIEKSEDWRQFSRRMDTHFPKLMNELDSVYGNNEALLPMLEMLLAQAWQSYSQRNSSLKDIDIARENNPDWILSNKQVGGVCYVDLFAGDLKGLKDKIPYFQELGLTYLHLMPLFKCPEGKSDGGYAVSSYRDVNPALGTIGDLREVIAALHEAGISAVVDFIFNHTSNEHEWAQRCAAGDPLFDNFYYIFPDRRMPDQYDRTLREIFPDQHPGGFSQLEDGRWVWTTFNSFQWDLNYSNPWVFRAMAGEMLFLANLGVDILRMDAVAFIWKQMGTSCENLPQAHALIRAFNAVMRIAAPAVFFKSEAIVHPDQVVQYIGQDECQIGYNPLQMALLWNTLATREVNLLHQALTYRHNLPEHTAWVNYVRSHDDIGWTFADEDAAYLGISGYDHRQFLNRFFVNRFDGSFARGVPFQYNPSTGDCRVSGTAAALVGLAQDDPHAVDRIKLLYSIALSTGGLPLIYLGDEVGTLNDDDWSQDSNKSDDSRWAHRPRYNEALYAQRNDPSTAAGQIYQDLRHMIAVRQSNPRFDGGRLVTFNTNNKHIIGYIRNNALLAFGNFSEYPQTVTAHTLQAMPFKAHDLIGGKTVSLNQDLTLQPYQVMWLEIA | lacks this newly described specific activity | does not affect the product profile | does not recognize at all α-L-RhapO-Me as an acceptor | no activation | null catalytic efficiency | 0 | lacks this newly described specific activity | does not recognize the α-L-RhapO-Me as an acceptor | – | –
2 | I228Y: 1G5A (N. polysaccharea amylosucrase, SEQ ID NO: 13) single mutant, isoleucine 228 replaced by tyrosine (protein, listed as Neisseria polysaccharea) SPNSQYLKTRILDIYTPEQRAGIEKSEDWRQFSRRMDTHFPKLMNELDSVYGNNEALLPMLEMLLAQAWQSYSQRNSSLKDIDIARENNPDWILSNKQVGGVCYVDLFAGDLKGLKDKIPYFQELGLTYLHLMPLFKCPEGKSDGGYAVSSYRDVNPALGTIGDLREVIAALHEAGISAVVDFIFNHTSNEHEWAQRCAAGDPLFDNFYYIFPDRRMPDQYDRTLREYFPDQHPGGFSQLEDGRWVWTTFNSFQWDLNYSNPWVFRAMAGEMLFLANLGVDILRMDAVAFIWKQMGTSCENLPQAHALIRAFNAVMRIAAPAVFFKSEAIVHPDQVVQYIGQDECQIGYNPLQMALLWNTLATREVNLLHQALTYRHNLPEHTAWVNYVRSHDDIGWTFADEDAAYLGISGYDHRQFLNRFFVNRFDGSFARGVPFQYNPSTGDCRVSGTAAALVGLAQDDPHAVDRIKLLYSIALSTGGLPLIYLGDEVGTLNDDDWSQDSNKSDDSRWAHRPRYNEALYAQRNDPSTAAGQIYQDLRHMIAVRQSNPRFDGGRLVTFNTNNKHIIGYIRNNALLAFGNFSEYPQTVTAHTLQAMPFKAHDLIGGKTVSLNQDLTLQPYQVMWLEIA | – | – | recognizes α-L-RhapO-Me as an acceptor to form in majority a Dp2 | clear activation | – | – | observed for all mutants except I228Y | – | Hydrolysis | 5
